B1: S-Pegylated papain: papain modified at its thiol with a 5 kDa PEG chain through a disulfide bond (conjugate, UniProt P00784 134-345, looked up)
Papain: IPEYVDWRQKGAVTPVKNQGSCGSCWAFSAVVTIEGIIKIRTGNLNEYSEQELLDCDRRSYGCNGGYPWSALQLVAQYGIHYRNTYPYEGVQRYCRSREKGPYAAKTDGVRQVQPYNEGALLYSIANQPVSVVLEAAGKDFQLYRGGIFVGPCGNKVDHAVAAVGYGPNYILIKNSWGTGWGENGYIRIKRGTGNSYGVCGLYTSSFYPVKN
modifications: S-PEG 5 kDa
notes: papain modified at its thiol with a 5 kDa PEG chain through a disulfide bond

Experiments:
[1] = Infrared spectroscopy (Fourier self-deconvolution, curve fitting of the amide I region): content of secondary structures; type: physicochemical; settings: FTIR amide I region; counter-ions K+ and Cl-; pH 5.0
Protocol: Spectra were recorded with a Perkin-Elmer infrared spectrometer 983 G equipped with a Perkin-Elmer microspecular reflectance accessory (ref. P.E. 221-0357). The internal reflection element was a Germanium ATR plate (50 x 20 x 2 mm, Harrick EJ 2121) with an aperture angle of 45° yielding 25 […] reflections. The mean stan rate was 15.5 cm⁻¹/minute and up to 20 accumulations were performed when necessary to improve the signal to noise ratio. The spectrophotometer was continuously purged with air dried on a silica gel column (5 x 130 cm) at a flow rate of 7 l/minute. Spectra were recorded at a nominal resolution of 2 cm⁻¹ and encoded every 0.5 cm⁻¹. At the end of the scan, they are transferred from the memory of the spectrophotometer to an Olivetti M 40 itself coupled to an Olivetti M 24 computer Spectra were Fourier transformed and stored for subsequent treatments.
In both cases the S-pegylated protein eluted from the CM-Sephadex C-50 before the irreversibly oxidized material. […] Indeed : 1. […] The proportions of the different secondary structures were determined, as previously described by Cabiaux et al, 1989, J. Biol. Chem., 264:4928-4938, using the frequency regions for the different structures as follows : 1661-1647 cm⁻¹ : α-helix; 1689-1682 + 1637-1615 cm⁻¹ : β-sheet; 1644.5-1637.7 cm⁻¹ : random and 1682-1661 cm⁻¹ : β-turn. […]

[2] = Acid denaturation: residual amidase activity after incubation in acidic buffer; type: physicochemical; settings: 40 µM proteinase, 25°C
Protocol: Indeed : • 1. […] Similar results were obtained in the case of papain.
Time course dependence of acid denaturation of S-methylthio PP III (---) and S-pegyl (5000) thio PP III (―) at various pH and at 25°C.
At various time intervals, aliquot were removed and assayed for residual amidase activity using the assay method N° 3.

Row | Molecule | PERCENTAGE OF Random [1] | PERCENTAGE OF α-Helix [1] | PERCENTAGE OF β-Sheet [1] | PERCENTAGE OF β-Turns [1] | lowest pH at which solutions remain stable (acid denaturation) [2]
1 | S-Pegylated Papaya Pectinase III: papaya proteinase III S-pegylated with PEG 5 kDa disulfide derivative | 8.3 | 27.9 | 36.1 | 27.7 | 2.6
2 | B1 | 8.2 | 28.2 |  | 27.0 | 
